Laboratory results from US20070192883A1.

Tests used:
[1] = target: TAT-028 protein on the surface of human tumor cell lines (NCI-H460, HEK293, HepG2) (human) (UniProt P80723); assay: flow cytometry on HEK293 cells; secondary antibody only, background control
[2] = target: TAT-028 protein on the surface of human tumor cell lines (NCI-H460, HEK293, HepG2) (human) (UniProt P80723); assay: flow cytometry on HepG2 cells; secondary antibody only, background control
[3] = target: TAT-028 protein on the surface of human tumor cell lines (NCI-H460, HEK293, HepG2) (human) (UniProt P80723); assay: flow cytometry on NCI-H460 cells; secondary antibody only, background control

UniProt P80723, sequence (P80723 2-227 limits assumed): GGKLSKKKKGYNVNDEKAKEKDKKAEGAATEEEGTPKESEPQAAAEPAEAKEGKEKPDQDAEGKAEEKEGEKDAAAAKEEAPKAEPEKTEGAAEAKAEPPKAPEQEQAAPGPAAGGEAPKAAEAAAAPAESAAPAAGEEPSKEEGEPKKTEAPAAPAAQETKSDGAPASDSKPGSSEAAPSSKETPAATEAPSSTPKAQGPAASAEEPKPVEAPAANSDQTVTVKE

## PE-conjugated anti-mouse IgG (antibody)
[1]
  geometric mean fluorescence (geometric mean fluorescence units): 124
[2]
  geometric mean fluorescence (geometric mean fluorescence units): 178
[3]
  geometric mean fluorescence (geometric mean fluorescence units): 37
